Reference: publication PMC11621567 (Nature Communications, 2024)
Where two headings read alike, the source gives them in different places.

Key:
cryo-EM structure [1] = target: the molecule itself; assay: cryo-EM structure
cryo-EM structure [2] = target: the molecule itself; assay: cryo-EM structure; remark: listed apart in the source

B1: human GPR156 EM (residues 1–346), apo (receptor)
chain: MEPEINCSELCDSFPGQELDRRPLHDLCKTTITSSHHSSKTISSLSPVLLGIVWTFLSCGLLLILFFLAFTIHCRKNRIVKMSSPNLNIVTLLGSCLTYSSAYLFGIQDVLVGSSMETLIQTRLSMLCIGTSLVFGPILGKSWRLYKVFTQRVPDKRVIIKDLQLLGLVAALLMADVILLMTWVLTDPIQCLQILSVSMTVTGKDVSCTSTSTHFCASRYSDVWIALIWGCKGLLLLYGAYLAGLTGHVSSPPVNQSLTIMVGVNLLVLAAGLLFVVTRYLHSWPNLVFGLTSGGIFVCTTTINCFIFIPQLKQWKAFEEENQTIRRMAKYFSTPNKSFHTQYGEE
cryo-EM structure [1]
  stoichiometry N: 2

B2: human GPR156 EM (residues 1–346) in the GPR156–Gi3 complex (receptor)
chain: B1 chain
cryo-EM structure [2]
  stoichiometry N: 2
